The values below come from USRE49495E1, “Binding polypeptides having a mutated scaffold” (Affibody AB, priority 2013, dated 2023).

A short description of data set [1]: Circular dichroism, variable temperature measurement (Tm) and spectra before and after heating. The format is physicochemical. The following applies: His6-tagged, 0.5 mg/ml in PBS, CD at 221 nm, 20 to 90° C. Here is the method: Circular dichroism (CD) analysis was carried out to determine the melting temperatures (Tm) and assess potential changes in the secondary structure of the inventive polypeptides as a result of the amino acid substitutions.
Purified His6-tagged Z variants were diluted to 0.5 mg/ml in PBS. For each diluted Z variant, a CD spectrum at 250-195 nm was recorded at 20° C. A variable temperature measurement (VTM) was performed to determine the Tm. In the VTM, the absorbance was measured at 221 nm while the temperature was raised from 20 to 90° C., with a temperature slope of 5° C./min. After the VTM, a second CD spectrum at 250-195 nm was recorded at 20° C. The CD measurements were performed on a Jasco J-810 spectropolarimeter (Jasco Scandinavia AB) using a cell with an optical path-length of 1 mm.

Data set [2] has as its target T1, human HER2-Fc (Homo sapiens, UniProt P04626).
T1 construct: Fc; purchased R&D Systems 1129-ER-050
Description: Biacore 2000 comparative kinetic analysis, HER2. The following applies: for KDInv/KDOrig: original set to 1.0; for KD(2w)/KD(0): KD after stability test relative to KD before. The format is binding. The method, then: (§1) A set of polypeptides showing improved stability properties in Example 12 were further assessed in terms of preserved binding capacities to their targets after introduction of alterations in the scaffold, as well as after having been subjected to the stability test, i.e. incubated at 37° C. for 2 weeks. Comparative kinetic constants (kon and koff) and affinities (KD) were determined using a Biacore 2000 instrument. The target proteins human HER2-Fc (R&D Systems, cat. no. 1129-ER-050), human PDGF-Rβ (R&D Systems, cat. no. 385-PR-100/CF), human FcRn (Biorbyt, cat. no. orb 84388) and human CAIX (R&D Systems, cat. no. 2188-CA), respectively, were immobilized on the carboxylated dextran layer surface of CM5 chips (GE Healthcare). The immobilization was performed using amine coupling chemistry according to the manufacturer's protocol and using HBS-EP as running buffer. One flow cell surface on the chip was activated and deactivated for use as blank during analyte injections. The immobilization level of target protein on the respective surface was approximately 850 RU for HER2, 2200 RU for PDGF-Rβ, 750 for FcRn and 580 RU for CAIX.
(§2) HBS-EP (HER2, PDGF-Rβ, CAIX) or a pH 6.0 Na2HPO4/citric acid buffer (126 mM Na2HPO4, 37 mM citric acid) (FcRn) was used as running buffer and the flow rate was 30 μl/min in the binding experiments performed at 25° C. as further described below.
The Z variants Z02891 (SEQ ID NO:27), Z17341 (SEQ ID NO:28), and Z17342 (SEQ ID NO:29) targeting HER2 were diluted in running buffer to final concentrations of 3.33, 10, 30 and 90 nM and injected for 5 minutes, followed by 30 minutes of dissociation in running buffer. Regeneration by four pulses alternating between 10 mM HCl and 10 mM NaOH followed by 5 min equilibration in running buffer was applied after each analyte injection.
(§3) Kinetic constants were calculated from the sensorgrams using the Langmuir 1:1 model (HER2, FcRn, CAIX) or the 1:1 binding with mass transfer model (PDGF-Rβ) of the BiaEvaluation software 4.1 (GE Healthcare). Curves of the blank surface were subtracted from the curves of the ligand surfaces and the data from the buffer cycles were subtracted from the data of the test-sample cycles to correct for any drift in signal.
(In general: SPR reads the build-up and loss of mass on a sensor chip optically.)

Data set [3] deals with T2, human PDGF-Rβ (Homo sapiens, UniProt P09619).
T2 construct: purchased R&D Systems 385-PR-100/CF
T2 sequence (P09619 with tags, fused parts or gaps limits assumed): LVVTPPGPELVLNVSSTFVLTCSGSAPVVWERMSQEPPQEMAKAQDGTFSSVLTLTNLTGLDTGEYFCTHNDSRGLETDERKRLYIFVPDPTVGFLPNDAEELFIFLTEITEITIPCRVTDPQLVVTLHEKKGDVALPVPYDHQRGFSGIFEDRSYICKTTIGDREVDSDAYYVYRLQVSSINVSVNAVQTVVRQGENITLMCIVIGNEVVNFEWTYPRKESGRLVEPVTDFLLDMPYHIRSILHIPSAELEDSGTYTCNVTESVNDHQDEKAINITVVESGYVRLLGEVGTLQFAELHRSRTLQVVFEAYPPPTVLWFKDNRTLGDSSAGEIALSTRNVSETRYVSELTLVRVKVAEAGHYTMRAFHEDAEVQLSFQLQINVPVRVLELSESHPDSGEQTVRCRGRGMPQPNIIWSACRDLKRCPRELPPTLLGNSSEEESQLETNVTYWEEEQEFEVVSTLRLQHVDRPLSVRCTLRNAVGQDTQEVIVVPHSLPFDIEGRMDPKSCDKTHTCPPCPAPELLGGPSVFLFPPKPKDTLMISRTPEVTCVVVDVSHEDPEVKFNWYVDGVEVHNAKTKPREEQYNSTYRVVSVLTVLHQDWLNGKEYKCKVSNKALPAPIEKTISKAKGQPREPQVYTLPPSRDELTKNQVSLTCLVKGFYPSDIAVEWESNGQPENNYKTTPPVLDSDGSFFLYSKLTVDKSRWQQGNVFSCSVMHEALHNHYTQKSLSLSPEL
The data set can be described thus: Biacore 2000 comparative kinetic analysis, PDGF-Rβ. The format is binding. The following applies: for KDInv/KDOrig: original set to 1.0. Here is the method: as §1, §2
The Z variants Z15805 (SEQ ID NO:30), Z17343 (SEQ ID NO:31), and Z17344 (SEQ ID NO:32) targeting PDGF-R13 were diluted in running buffer to final concentrations of 6.67, 20, 60 and 180 nM and injected for 5 minutes, followed by 20 minutes of dissociation in running buffer. Regeneration by three pulses of 10 mM NaOH followed by 5 min equilibration in running buffer was applied after each analyte injection.
as §3

The target in data set [4] is T3, human FcRn (Homo sapiens, UniProt P55899).
T3 construct: purchased Biorbyt orb 84388
T3 sequence (P55899 24-297 limits assumed): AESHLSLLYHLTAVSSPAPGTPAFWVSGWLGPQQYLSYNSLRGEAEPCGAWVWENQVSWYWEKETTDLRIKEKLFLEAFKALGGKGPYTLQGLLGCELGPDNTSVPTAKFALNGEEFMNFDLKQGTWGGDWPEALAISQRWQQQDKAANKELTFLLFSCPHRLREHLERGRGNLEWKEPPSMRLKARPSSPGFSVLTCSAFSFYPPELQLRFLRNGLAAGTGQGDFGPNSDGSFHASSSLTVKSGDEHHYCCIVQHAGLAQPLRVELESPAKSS
T3 sequence (P61769 21-119 partner): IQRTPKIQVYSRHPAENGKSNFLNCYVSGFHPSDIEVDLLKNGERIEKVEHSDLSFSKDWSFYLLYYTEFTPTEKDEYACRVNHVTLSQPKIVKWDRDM
Description: Biacore 2000 comparative kinetic analysis, FcRn. The format is binding. The following applies: for KDInv/KDOrig: original set to 1.0. The method, then:
Comparative kinetic constants (kon and koff) and affinities (KD) were determined using a Biacore 2000 instrument. The target proteins human HER2-Fc (R&D Systems, cat. no. 1129-ER-050), human PDGF-Rβ (R&D Systems, cat. no. 385-PR-100/CF), human FcRn (Biorbyt, cat. no. orb 84388) and human CAIX (R&D Systems, cat. no. 2188-CA), respectively, were immobilized on the carboxylated dextran layer surface of CM5 chips (GE Healthcare). The immobilization was performed using amine coupling chemistry according to the manufacturer's protocol and using HBS-EP as running buffer. One flow cell surface on the chip was activated and deactivated for use as blank during analyte injections.
as §2
Regeneration by three pulses of HBS-EP followed by 10 min equilibration in running buffer was applied after each analyte injection.
as §3

Data set [5] is described as follows: Accelerated stability study of C5 binding polypeptides, 2 weeks at 37° C., SDS-PAGE and Reversed Phase HPLC (RPC). The format is physicochemical.
Description: The stability was measured by the appearance of new variants after the stability testing by SDS-PAGE and Reversed Phase HPLC (RPC). In both analyses, the initial sample and the one subjected to the stability study were run in parallel. For the SDS-PAGE, 7.5 μg protein was loaded into each well.
The purified proteins were formulated in 25 mM NaP/125 mM NaCl pH 7.0 and subjected to an accelerated stability study for 2 weeks at 37° C. The stability was measured by the appearance of new variants after the stability testing by SDS-PAGE and Reversed Phase HPLC (RPC). In both analyses, the initial sample and the one subjected to the stability study were run in parallel. For the SDS-PAGE, 7.5 μg protein was loaded into each well.
Data set [6] is described as follows: Three month stability test at 37° C., RPC main peak.
Description: (Example 2) were subjected to a longer 3 month stability test at 37° C. The setup of the stability test and the analysis by RPC was as described in Example 2. The evaluation of the stability was made by measuring the main peak of the chromatogram and calculating the corresponding percentage of the total protein content.
In data set [7] the target is human FcRn (Biorbyt, cat. no. orb 84388) (human) (UniProt P55899). Description: SPR Biacore 2000, FcRn on CM5 chip, pH 6.0, 1:1 Langmuir; sample (0) before stability test.
The target is the same in data set [8]. Description: SPR Biacore 2000, FcRn on CM5 chip, pH 6.0, 1:1 Langmuir; sample (2w) after 2 weeks at 37 C.
Data set [9] has the same target. The data set can be described thus: SPR Biacore 2000, FcRn on CM5 chip, pH 6.0, 1:1 Langmuir; KD after 2 weeks at 37 C against KD before.
The target is the same in data set [10]. Description: SPR Biacore 2000, FcRn on CM5 chip, pH 6.0, 1:1 Langmuir; sample (0) before stability test; reference Z10103 (0).
The target is the same in data set [11]. Description: SPR Biacore 2000, FcRn on CM5 chip, pH 6.0, 1:1 Langmuir; sample (2w) after 2 weeks at 37 C; reference Z10103 (2w).
Where [12] appears, read: (0) prior to stability test, comparative, not absolute.
Where [13] appears, read: (2w) after 2 weeks at 37° C., comparative, not absolute.
Setting [14] is: compared with original Z variant.
[15] abbreviates: KD after stability test relative to KD before.
Setting [16] is: (0) prior to stability test, pH 6.0.
[17] abbreviates: (2w) after 2 weeks at 37° C., pH 6.0.

For orientation: Kd means the constant that tells how readily two partners part at equilibrium. A lower Kd goes with a tighter complex. As for “Z02891: original Z variant polypeptide targeting HER2, His6-tagged [reference compound]”, the “Tm (° C.)” value in data set [1] worked out at 70 °C. Further, in [2] ((0) prior to stability test), the “ka” value amounted to 1.33e+06 M/s, the “kd” value turned out to be 7.1e-05 s⁻¹ and the KDInv/KDOrig amounted to 1.0. In [2] (setting [12]), this molecule came in with a Kd of 0.054 nM. For the same molecule, in data set [2] ((2w) after 2 weeks at 37° C.), the “ka” value stood at 1.15e+06 M/s, the “kd” value came to 7.19e-05 s⁻¹ and the KDInv/KDOrig worked out at 1.0. In data set [2] (setting [13]), this molecule registered a Kd of 0.062 nM. For the same molecule, the “KD(2w)/KD(0)” value in [2] stood at 1.17.

Regarding “Z17342: inventive HER2 binding Z variant; D36R, D37Q, S39E, N52S, D53E (AEAKYAKEMRNAYWEIALLPNLTNQQKRAFIRKLYRQPEQSSELLSEAKKLSESQAPK; Engineered HER2 binding Z variant)”, the “Tm (° C.)” value in data set [1] was 62 °C. Further, the “ka” value in [2] ((0) prior to stability test) turned out to be 894000 M/s; in data set [2] ((2w) after 2 weeks at 37° C.), 649000 M/s. In addition, the “kd” value in data set [2] ((0) prior to stability test) came out at 0.00157 s⁻¹; in data set [2] ((2w) after 2 weeks at 37° C.), 0.0015 s⁻¹. Besides, the dissociation constant (Kd) in data set [2] (setting [12]) was 1.8 nM; in [2] (setting [13]), 2.3 nM; in data set [2] (range of magnitude), ~1 nM. In addition, the figures for the KDInv/KDOrig in data set [2] ((0) prior to stability test) and in data set [2] ((2w) after 2 weeks at 37° C.) were 33 and 37, respectively. For the same molecule, the “KD(2w)/KD(0)” value in data set [2] came out at 1.31. Also, the “effect of scaffold substitutions on the affinity” value (from here on “effect of scaffold substitutions”) in [2] (setting [14]) was “more negative effect on the affinity”.

On to “Z17344: inventive PDGF-Rβ binding Z variant; D36R, D37Q, S39E, N52S, D53E (AEAKYAKELIEAAAEIDALPNLTRRQWNAFIKKLVRQPEQSSELLSEAKKLSESQAPK; Engineered PDGFRbeta binding Z variant)”, for which the “Tm (° C.)” value in data set [1] was 42 °C. Also, the figures for the “ka” value in data set [3] ((0) prior to stability test) and in data set [3] ((2w) after 2 weeks at 37° C.) were 5.15e+07 M/s and 5.62e+07 M/s, respectively. In addition, the “kd” value in data set [3] ((0) prior to stability test) was 0.0616 s⁻¹; in data set [3] ((2w) after 2 weeks at 37° C.) it was 0.0623 s⁻¹. Also, the Kd in [3] (setting [12]) is 1.2 nM; in data set [3] (setting [13]) it was 1.1 nM; in data set [3] (range of magnitude), ~1 nM. Also, the KDInv/KDOrig is 6.19 in data set [3] ((0) prior to stability test) and 3.88 in [3] ((2w) after 2 weeks at 37° C.). The “KD(2w)/KD(0)” value in data set [3] (setting [15]) turned out to be 0.93. Also, the “effect of scaffold substitutions” value in data set [3] (setting [14]) was “more negative effect on the affinity”.

With “Z17348: inventive FcRn binding Z variant; D36R, D37Q, S39E, N52S, D53E (AEAKYAKEQDAAAHEIRWLPNLTFDQRVAFIHKLARQPEQSSELLSEAKKLSESQAPK; Engineered FcRn binding Z variant)”, in [1], the “Tm (° C.)” value came out at 44 °C. Also, the KDInv/KDOrig in data set [4] ((0) prior to stability test) is listed as 1.93; in data set [4] ((2w) after 2 weeks at 37° C.), 3.46. Moreover, the entries for the “ka” value in [4] (setting [16]) and in data set [4] (setting [17]) were 1.82e+06 M/s and 1.28e+06 M/s, respectively. Also, the “kd” value in data set [4] (setting [16]) was determined as 0.01 s⁻¹; in data set [4] (setting [17]) it was 0.00809 s⁻¹. Besides, the dissociation constant Kd in data set [4] ((0) prior to stability test, pH 6.0, comparative, not absolute) is 5.5 nM; in [4] ((2w) after 2 weeks at 37° C., pH 6.0, comparative, not absolute), 6.3 nM; in [4] (range of magnitude), ~1 nM. The “KD(2w)/KD(0)” value in [4] (setting [15]) turned out to be 1.14. In data set [4] (setting [14]), the “effect of scaffold substitutions” value is “more negative effect on the affinity”.

B1: PSI0383: C5 binding polypeptide fused to albumin binding domain; ND to SE in positions 52-53 (protein)
chain: AEAKYAKEVLEAWDEIDRLPNLTIEQWLAFINKLDRQPEQSSELLSEAKKLSESQAPKVEGSLAEAKEAANAELDSYGVSDFYKRLIDKAKTVEGVEALKDAILAALP
modifications: Engineered C5 binding Z variant
On to B1, for which the “Main peak (% of total protein)” value in data set [5] (RPC, after 2 weeks at 37° C., 25 mM NaP/125 mM NaCl pH 7.0) amounted to 91%. For the same molecule, the “2 weeks, 37° C. Main peak (% of total protein)” value in data set [5] (RPC, data from Example 2 repeated in Table 8) is given as 91%. For the same molecule, the “stability when compared with PSI0242” value in [5] (conclusion from Table 1, 2 weeks at 37° C.) is recorded as “increased stability”. For the same molecule, in data set [6], the “stability after 3 months at 37° C. compared with PSI0242 after 2 weeks” value is reported as “higher proportion of protein in the original form”. Moreover, in data set [6] (RPC), the “3 months, 37° C. Main peak (% of total protein)” value was determined as 59%.

B2: Z17348 (designed binder)
chain: MGSSHHHHHHLQAEAKYAKEQDAAAHEIRWLPNLTFDQRVAFIHKLARQPEQSSELLSEAKKLSESQAPK
A word on the koff: it is the first-order rate constant of dissociation. One may read the kon as the second-order rate constant of association. Low values mean slower complex formation, high ones faster complex formation. As for B2, in data set [7], the dissociation constant Kd was found to be 5.5 nM, the dissociation rate constant (koff) was determined as 0.01 s⁻¹ and the association rate constant (kon) amounted to 1.82e+06 M⁻¹ s⁻¹. In addition, in data set [8], the Kd is 6.3 nM, the dissociation rate constant (koff) is 0.00809 s⁻¹ and the association rate constant (kon) was 1.28e+06 M⁻¹ s⁻¹. The molecule further registered a KD(2w)/KD(0) in [9] of 1.14. Besides, the KDInv/KDOrig in data set [10] came out at 1.93. This molecule registered a KDInv/KDOrig in [11] of 3.46.
